# Reference: patent publication US10927354B2, “D-type amino acid dehydrogenase” (Kureha Corporation, priority 2017, dated 2021)
# B1: D-type amino acid dehydrogenase: D-type amino acid dehydrogenase derived from N. massiliense, amino acid sequence SEQ ID NO: 2, hexamer (protein)
# chain: MSNVYNVAVVGYGNIGKYAVQAIDAAPDMQLAGVVRRASSAAKDTPPELVGRRVVHDIRDLEQVDVAILAAPTRTIPAYARDVLSLGIHTVDSYDIHGELANLRRELDDVSKKNDSVAIISAGWDPGTDSMIRGMLEFMAPGGLTYTNFGPGMSMGHSVAVKAIDGVKDALSLTIPLGTSIHRRMVYVELEAGADFETVKKAILADPYFVNDETHVTQVPNVQQLVNVGHGVSMERRGVSGATHNQLFTFEMRINNPALTSQVLVAAARATFKQQPGAYTMIEVPVIDYLPGDRDDIIRRLV
# modifications: hexamer; Numidum massiliense
# Columns and labels:
# [1] = tested on: D-type amino acid dehydrogenase derived from N. massiliense; test: Kinetic analysis of D-type amino acid dehydrogenase; type: biochemical, Numidum massiliense; settings: meso-diaminopimelic acid as substrate, NADP^+ or NAD^+ as coenzyme; values for meso-diaminopimelic acid determined using NADP^+
# Method: The absorbance was measured by an ultraviolet-visible spectrophotometer UV-1800 (available from SHIMADZU). The specific activity of the enzyme was calculated from the concentration of the enzyme used and enzyme dilution rate using the obtained absorbance change and the following equation. […] A turnover number (kcat) as a reaction rate parameter, a Michaelis constant (Km) value, and catalytic efficiency (kcat/Km) were determined with Igor Pro ver. 3.14 (available from WaveMetrics) based on Michaelis-Menten equation after the initial velocities were plotted against different substrates and coenzyme concentrations.
# [2] = Optimum pH in catalytic reaction (deamination of meso-diaminopimelic acid); type: biochemical; settings: deamination of 10 mM meso-diaminopimelic acid, 1.25 mM NADP^+, 50° C.
# Method: The optimum pH was evaluated for the D-type amino acid dehydrogenase obtained in Example 2. The activity of the enzyme was measured by determining an increase in absorbance at wavelength of 340 nm of NADPH produced by the catalytic reaction of the enzyme.
# The absorbance was measured by an ultraviolet-visible spectrophotometer UV-1800 (available from SHIMADZU). The specific activity of the enzyme was calculated from the concentration of the enzyme used and enzyme dilution rate using the obtained absorbance change and the following equation.
# [3] = pH stability of D-type amino acid dehydrogenase; type: physicochemical; settings: pH 5.5 to 9.5, 50° C., 30 minutes; relative to pH 5.5 as 100%
# Method: The D-type amino acid dehydrogenase purified in Example 2 was subjected to a heat treatment at 50° C., in 100 mM of each buffer solution (pH 4.0, 4.5, 5.0, 5.5, 6.0, 6.5, 7.0, 7.5, 8.0, 8.5, 9.0, 9.5, 10.0, 10.5, 11.0, 11.3, 12.0, 12.3, or 13.0) for 30 minutes to confirm residual activity after being left to stand for 5 minutes on ice. […] The residual activity after treatment at other pH was calculated as a relative activity with treatment at pH 5.5 as 100%.
# [4] = Coenzyme dependence by activity-staining; type: biochemical; settings: 10 mM meso-diaminopimelic acid, 1.25 mM coenzyme, pH 8.0, 50° C., 30 minutes
# Method: The coenzyme dependence was evaluated for the D-type amino acid dehydrogenase obtained in Example 2 above. The coenzyme dependence of the enzyme was evaluated by an activity-staining method due to a catalytic reaction of the enzyme.
# More specifically, an appropriate amount of enzyme solution was subjected to disc gel electrophoresis. […] The 2-(4-iodophenyl)-3-(4-nitrophenyl)-5-phenyl-2H-tetrazolium chloride in the reaction solution is reduced to form a […] formazan. A reaction formula is indicated below. In the following reaction formula, the D-type amino acid dehydrogenase is referred to as “meso-DAPDH”.
# [5] = Optimum temperature in catalytic reaction; type: biochemical; settings: deamination of meso-diaminopimelic acid, NADP^+, 50-80° C. tested
# Method: The measurement results are illustrated in FIG. 6. From the results, it was confirmed that the optimum temperature for activity was about 75° C.
# [6] = Thermal stability of D-type amino acid dehydrogenase; type: physicochemical; settings: 60° C., 30 minutes, 10 mM phosphate buffer pH 7.2; relative to treatment at 40° C. as 100%
# Method: The D-type amino acid dehydrogenase purified in Example 2 was heat-treated in 10 mM phosphate buffer solution (pH 7.2) under various temperature conditions (40° C., 45° C., 50° C., 55° C., 60° C., 65° C., or 70° C.) for 30 minutes to confirm residual activity after being left to stand for 5 minutes on ice. […] The residual activity after treatment at other temperatures was calculated as a relative activity with treatment at 40° C. as 100%.
# [7] = Activity-staining with D-alanine or L-alanine; type: biochemical; settings: 10 mM D-alanine or L-alanine, 1.25 mM NADP^+, pH 8.0, 50° C., 30 minutes
# Method: The activity was evaluated for the D-type amino acid dehydrogenase obtained in Example 2 above. The activity of the enzyme was evaluated by an activity-staining method due to a catalytic reaction of the enzyme. More specifically, an appropriate amount of enzyme solution was subjected to disc gel electrophoresis. […] 2-(4-iodophenyl)-3-(4-nitrophenyl)-5-phenyl-2H-tetrazolium chloride in the reaction solution is reduced to form a […] formazan. A reaction formula is indicated below. In the following reaction formula, the D-type amino acid dehydrogenase is referred to as “meso-DAPDH”.
coenzyme dependence (activity-staining) [4],Molecule,kcat [1],optimum pH for activity [2],residual activity after pH treatment [3],optimum temperature for activity [5],residual activity after heat treatment [6],D/L selectivity (activity-staining) [7]
–,NC(=O)c1ccc[n+]([C@@H]2O[C@H](COP(=O)([O-])OP(=O)(O)OC[C@H]3O[C@@H](n4cnc5c(N)ncnc54)[C@H](O)[C@@H]3O)[C@@H](O)[C@H]2O)c1 [NAD^1],8930 s⁻¹,–,–,–,–,–
utilized both NAD^+ and NADP^+ coenzymes,B1,–,10.5,≥ 90%,about 75 °C,about 76%,selectively acts on the D-amino acid
